This assay concerns the target T1, mE-ERH, fusion protein comprising the EGF-like domains of MSP1-19, MSP8 and MSP4 (Plasmodium falciparum, 3D7 assumed from …, UniProt Q7KWJ2).
T1 construct: source: Nicotiana benthamiana leaves (agroinfiltration, ER-retained), purified
The assay is described as follows: SPR. As to conditions: both partners purified.

B1: recombinant 2.44IgG1 (chimeric mouse-human IgG1:kappa1 mAb) (antibody, V domains shown)
VH: DVQLQESGPGLVKPSQSLSLTCTVTGYSITSDFAWNWIRQFPGNRLEWMGYMGYTGSTSYNPSLRGRISITRDTSKNQFFLQLNSVTTEDTATYYCARGDYYGSRGYFDVWGAGTTVTVSS
VL: EIVLTQSPALMAASPGEKVTITCSVSSSIRSSNLHWYQQKSDTSPKPWIYGTSNLASGVPVRFSGSGSGTSYSLTISTMEAEDAATYYCQQWSSYPFTFGSGTKLEIK
notes: also called recombinant mAb; recombinant antibody
Turning to B1, the equilibrium dissociation constant (Kd) stood at 10.2 nM, the koff was found to be 0.000926 s⁻¹ and the kon was 90400 M⁻¹ s⁻¹.

By Kd is commonly meant the equilibrium constant for the complex coming apart. A low value points to tighter binding. Broadly, the koff is a measure of how fast the partners let go of each other. One may read the kon as the second-order rate constant of association.

For the origin of these results see publication PMC4323031 (Malaria Journal, 2015).
